Biological target: CD112R (Homo sapiens (Human)) (UniProt Q6DKI7)
Assay: not given

CD112R (Homo sapiens (Human)), sequence (Q6DKI7 whole entry): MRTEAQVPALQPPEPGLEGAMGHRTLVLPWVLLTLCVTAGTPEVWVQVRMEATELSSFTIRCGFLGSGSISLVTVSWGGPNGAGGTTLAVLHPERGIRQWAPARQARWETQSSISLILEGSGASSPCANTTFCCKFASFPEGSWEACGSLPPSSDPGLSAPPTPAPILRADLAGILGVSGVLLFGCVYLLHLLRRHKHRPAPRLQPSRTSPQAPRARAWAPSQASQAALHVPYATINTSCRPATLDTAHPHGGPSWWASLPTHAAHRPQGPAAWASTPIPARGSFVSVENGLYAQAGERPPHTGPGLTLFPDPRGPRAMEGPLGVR
CD155 IgV Fc, sequence (P15151 21-142): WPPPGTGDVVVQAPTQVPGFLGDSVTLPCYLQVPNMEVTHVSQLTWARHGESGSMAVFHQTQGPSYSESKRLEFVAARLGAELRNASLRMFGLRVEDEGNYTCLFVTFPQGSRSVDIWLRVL
CTLA4-Fc (Fc fusion), sequence (chain): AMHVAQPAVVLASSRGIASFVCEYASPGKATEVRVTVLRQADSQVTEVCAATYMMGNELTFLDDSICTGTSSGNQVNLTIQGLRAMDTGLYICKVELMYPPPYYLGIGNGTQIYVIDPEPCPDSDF
CD112 ECD-Fc (Fc fusion), sequence (chain): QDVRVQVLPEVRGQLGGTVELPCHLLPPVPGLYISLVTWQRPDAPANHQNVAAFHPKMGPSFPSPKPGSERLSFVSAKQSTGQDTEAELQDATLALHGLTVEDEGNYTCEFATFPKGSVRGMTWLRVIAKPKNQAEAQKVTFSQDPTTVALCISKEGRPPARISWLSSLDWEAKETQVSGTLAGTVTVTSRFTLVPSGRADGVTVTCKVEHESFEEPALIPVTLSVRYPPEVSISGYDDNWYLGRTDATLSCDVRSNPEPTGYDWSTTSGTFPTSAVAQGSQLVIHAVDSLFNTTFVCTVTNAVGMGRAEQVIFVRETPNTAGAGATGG

| RLU (IL-2-luciferase reporter) [RLU] | Substance |
| --- | --- |
| 624 | Fc Control |

Biological target: human PD-1 (human)
Assay: not given

human PD-1 (human), sequence (chain, as listed by the source limits assumed): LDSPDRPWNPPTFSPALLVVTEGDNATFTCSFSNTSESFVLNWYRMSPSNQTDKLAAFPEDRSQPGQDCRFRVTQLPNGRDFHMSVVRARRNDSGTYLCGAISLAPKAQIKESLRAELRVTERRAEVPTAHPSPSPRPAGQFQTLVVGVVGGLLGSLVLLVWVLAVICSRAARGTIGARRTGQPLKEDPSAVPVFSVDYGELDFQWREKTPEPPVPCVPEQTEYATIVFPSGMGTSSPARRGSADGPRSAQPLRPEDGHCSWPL

| RLU (IL-2-luciferase reporter) [RLU] | Substance |
| --- | --- |
| 624 | Fc Control |

Biological target: human TIGIT (human)
Assay: not given

| RLU (IL-2-luciferase reporter) [RLU] | Substance |
| --- | --- |
| 624 | Fc Control |

Biological target: PD-1-Fc (Homo sapiens)
Sequence (chain, as listed by the source limits assumed): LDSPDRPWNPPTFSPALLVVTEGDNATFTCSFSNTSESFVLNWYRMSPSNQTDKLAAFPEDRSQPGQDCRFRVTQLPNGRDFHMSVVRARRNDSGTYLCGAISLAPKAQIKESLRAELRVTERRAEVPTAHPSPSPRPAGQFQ
Assay: ForteBio, PD-1-Fc

| Fortebio binding to PD-1-Fc Response Units (Response Units) | Substance |
| --- | --- |
| -0.038 | variant PD-L2 IgV-Fc H15Q, R76G, I85F (SEQ ID NO 680) (Fc fusion) |
| -0.006 | variant PD-L2 IgV-Fc H15Q, R76G, I85F (SEQ ID NO 685) (Fc fusion) |

Biological target: PD-1 expressed on cells (human)
Assay: flow cytometry, Jurkat/PD-1 cells
Target sequence in this assay (chain, as listed by the source): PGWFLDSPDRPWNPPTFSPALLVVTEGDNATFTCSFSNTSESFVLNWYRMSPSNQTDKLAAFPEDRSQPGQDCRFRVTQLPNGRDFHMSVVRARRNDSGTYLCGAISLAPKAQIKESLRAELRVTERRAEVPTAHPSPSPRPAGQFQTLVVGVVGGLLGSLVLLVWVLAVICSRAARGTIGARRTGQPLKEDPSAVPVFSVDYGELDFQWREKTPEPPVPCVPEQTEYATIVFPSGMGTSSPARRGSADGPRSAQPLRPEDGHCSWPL

| Fold increase over wildtype PD-L2 IgV-Fc | MFI at 50 nM | Substance |
| --- | --- | --- |
| 0.3 | 2940 | variant PD-L2 IgV-Fc H15Q, R76G, I85F (SEQ ID NO 680) (Fc fusion) |
| 0.19 | 1890 | variant PD-L2 IgV-Fc H15Q, R76G, I85F (SEQ ID NO 685) (Fc fusion) |

Biological target: CD80 expressed on cells (Homo sapiens)
Assay: flow cytometry, cells expressing CD80

| MFI at 20 nM | Fold Change Compared to WT PD-L1 | Substance |
| --- | --- | --- |
| 136 |  | variant PD-L1 ECD-Fc G15A, I36T, V129D (Fc fusion) |
| 149 |  | variant PD-L1 ECD-Fc I36T, G52R, M97L, V112A, K144E, V175A, P198T (Fc fusion) |
| 150 |  | variant PD-L1 ECD-Fc V93E, V129D (Fc fusion) |
| 219 | 1.6 | variant PD-L1 ECD-Fc V129D, H202Q (Fc fusion) |
| 152 |  | variant PD-L1 ECD-Fc V129D, P198T (Fc fusion) |

The remaining lines, values behind:

| Substance | MFI at 20 nM | Fold Change Compared to WT PD-L1 |
| --- | --- | --- |
| CTLA4-Fc (Fc fusion) | 200000 |  |
| Fc Control | 132 |  |
| variant PD-L1 ECD-Fc G15A, V129D (Fc fusion) | 128 |  |
| variant PD-L1 ECD-Fc I36T, I46V, D55G, M97L, K106E, K144E, T185A, R195G (Fc fusion) | 190 |  |
| variant PD-L1 ECD-Fc I36T, M97L, A103V, Q155H (Fc fusion) | 128 |  |
| variant PD-L1 ECD-Fc L35P, I36S, M97L, K111E (Fc fusion) | 155 |  |
| variant PD-L1 ECD-Fc M18V, I98L, L124S, P198T, L206F (Fc fusion) | 143 |  |
| variant PD-L1 ECD-Fc V129D, T150A (Fc fusion) | 142 |  |

Biological target: PD-1 expressed on cells (human)
Assay: flow cytometry, cells expressing PD-1

| MFI at 20 nM | Fold Change Compared to WT PD-L1 | Substance |
| --- | --- | --- |
| 114 | 0 | variant PD-L1 ECD-Fc G15A, I36T, V129D (Fc fusion) |
| 81 | 0 | variant PD-L1 ECD-Fc I36T, G52R, M97L, V112A, K144E, V175A, P198T (Fc fusion) |
| 830 |  | variant PD-L1 ECD-Fc K28I, S99G (Fc fusion) |
| 69 | 0 | variant PD-L1 ECD-Fc M18V, M97L, F193S, R195G, E200K, H202Q (Fc fusion) |
|  | 0.4 | variant PD-L1 ECD-Fc V93E, V129D (Fc fusion) |
|  | 0.6 | variant PD-L1 ECD-Fc V129D, H202Q (Fc fusion) |
|  | 1 | variant PD-L1 ECD-Fc V129D, P198T (Fc fusion) |

More lines, now with the values behind:

| Substance | MFI at 20 nM | Fold Change Compared to WT PD-L1 |
| --- | --- | --- |
| CTLA4-Fc (Fc fusion) | 59 |  |
| Fc Control | 59 |  |
| variant PD-L1 ECD-Fc G15A, I36T, M97L, K111E, H202Q (Fc fusion) | 112 |  |
| variant PD-L1 ECD-Fc G15A, I36T, V129D, R195G (Fc fusion) | 125 | 0 |
| variant PD-L1 ECD-Fc G15A, V129D (Fc fusion) |  | 0.7 |
| variant PD-L1 ECD-Fc I36T, I46V, D55G, M97L, K106E, K144E, T185A, R195G (Fc fusion) | 69 | 0 |
| variant PD-L1 ECD-Fc I36T, M97L, A103V, Q155H (Fc fusion) | 120 | 0 |
| variant PD-L1 ECD-Fc L35P, I36S, M97L, K111E (Fc fusion) | 190 | 0.1 |
| variant PD-L1 ECD-Fc M18V, I98L, L124S, P198T, L206F (Fc fusion) |  | 0.7 |
| variant PD-L1 ECD-Fc V129D, T150A (Fc fusion) |  | 0.6 |

Biological target: T1, human CD96, full-length, expressed on transfected HEK293 cells (human) (UniProt P40200)
T1 sequence: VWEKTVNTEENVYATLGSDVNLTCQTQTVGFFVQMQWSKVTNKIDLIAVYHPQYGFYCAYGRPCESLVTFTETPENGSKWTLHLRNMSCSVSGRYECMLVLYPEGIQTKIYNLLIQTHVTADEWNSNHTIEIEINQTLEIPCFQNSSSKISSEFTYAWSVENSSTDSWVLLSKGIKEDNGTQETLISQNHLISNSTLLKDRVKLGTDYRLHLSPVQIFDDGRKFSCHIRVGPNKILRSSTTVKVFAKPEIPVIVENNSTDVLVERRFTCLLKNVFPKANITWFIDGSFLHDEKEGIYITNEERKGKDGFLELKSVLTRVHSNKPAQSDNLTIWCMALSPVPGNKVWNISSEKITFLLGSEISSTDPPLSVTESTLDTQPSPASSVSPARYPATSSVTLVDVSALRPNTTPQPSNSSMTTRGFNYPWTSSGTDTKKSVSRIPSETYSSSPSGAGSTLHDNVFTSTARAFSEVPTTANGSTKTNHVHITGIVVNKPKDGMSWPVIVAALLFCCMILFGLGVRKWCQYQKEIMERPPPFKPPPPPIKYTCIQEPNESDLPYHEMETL
Assay: flow cytometry, HEK293 transfectants, 100 nM

| MFI at 100 nM [MFI] | Substance |
| --- | --- |
| 1100 | CD112 ECD-Fc (Fc fusion) |

Biological target: T2, human TIGIT, full-length, expressed on transfected HEK293 cells (human)
T2 sequence: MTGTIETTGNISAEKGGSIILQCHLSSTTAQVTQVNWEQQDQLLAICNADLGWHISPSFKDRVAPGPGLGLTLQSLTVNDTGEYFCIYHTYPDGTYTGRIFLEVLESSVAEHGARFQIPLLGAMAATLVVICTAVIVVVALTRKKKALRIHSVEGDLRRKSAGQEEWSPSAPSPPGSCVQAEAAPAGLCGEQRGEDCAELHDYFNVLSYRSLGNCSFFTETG
Assay: flow cytometry, HEK293 transfectants, 100 nM

| MFI at 100 nM [MFI] | Substance |
| --- | --- |
| 29200 | CD112 ECD-Fc (Fc fusion) |

Biological target: CD112R (Homo sapiens (Human)) (UniProt Q6DKI7)
Assay: flow cytometry, transfected HEK293 cells, 100 nM

| Fold ↑ to WT ECD | MFI at 100 nM | Substance |
| --- | --- | --- |
| 1.65 | 2940 | CD155 IgV Fc (from UniProt P15151) (Fc fusion) |

Biological target: T3, human CD226 (human)
T3 sequence: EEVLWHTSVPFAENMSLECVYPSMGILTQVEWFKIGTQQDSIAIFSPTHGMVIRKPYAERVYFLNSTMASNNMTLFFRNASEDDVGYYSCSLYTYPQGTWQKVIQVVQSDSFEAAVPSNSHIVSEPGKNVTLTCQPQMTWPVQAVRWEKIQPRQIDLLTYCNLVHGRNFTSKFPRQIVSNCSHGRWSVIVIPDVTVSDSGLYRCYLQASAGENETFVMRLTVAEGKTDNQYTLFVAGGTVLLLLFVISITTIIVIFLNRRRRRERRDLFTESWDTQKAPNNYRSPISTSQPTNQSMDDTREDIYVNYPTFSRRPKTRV
Assay: flow cytometry, transfected HEK293 cells, 100 nM

| MFI at 100 nM | Substance |
| --- | --- |
| 4690 | CD155 IgV Fc (from UniProt P15151) (Fc fusion) |

Biological target: T4, human CD96 (human) (UniProt P40200)
T4 sequence: T1 sequence
Assay: flow cytometry, transfected HEK293 cells, 100 nM

| MFI at 100 nM | Substance |
| --- | --- |
| 3270 | CD155 IgV Fc (from UniProt P15151) (Fc fusion) |

Biological target: human TIGIT (human)
Assay: flow cytometry, transfected HEK293 cells, 100 nM

| MFI at 100 nM | Substance |
| --- | --- |
| 4690 | CD155 IgV Fc (from UniProt P15151) (Fc fusion) |

From patent US20230381229A1
